Measured values taken from the DeepSol protein solubility set.

Assay: soluble on expression in E. coli; label from the status in PepcDB or PDB records

| Sequence | soluble on expression in E. coli |
| --- | --- |
| MAHHHHHHMSTSRPAAVLHAASDDEKEDDPMAVLWQHERHVLVLTRAGKPIFSQHGHEEQLSPLCALLQVLLCIHEDKGGGDEQSRGPSQPAPRSDGTASSAAVKDELHQVVYYRSKSASGQACHQGDVNAQVQALTLFFYVQGDLIYLMSVRSVAPSLPAGAVEMSNAEGECEPPPLASYCLAQLRHVHHCILLVLPTVNTLLTRSPGLDVMAMYTSADRAALRELIESYQTELTYAVGAVATLALSVEKRRVVERALLCCYRSCADAAVGPPAHQLFSFLYFKNYLVAAVGPPETYAADPKVSVSAPLALGPDTALCGCLHVDDALLLYRYARSLVSRQLGEAWVPVCLPRFNSTGYLWCYAVNFTRYARELRKQQGKTEWPKVWEEHTELDIMLLHVSASQDDFAALSRSTRRFAQILCAPAVEDNFYYRLEEELYYRTPAPLTELLPSSHTSVSTCSSRDLSGYTDGVPVVVWRGHSRQ | not soluble |
| GPGSMSAPTPRTGIIAGFNKGHVTTRRPRQPSPNDRFAVPHKHLRAVKAIIADLVGLSPLEKRVQEFLRVGKEKRALKYCKKRLGDFTAAKKKRSKMEEALRHATKKHH | soluble |
| AHHHHHHGSIDPRELAISAKLEGVKRIIPVVSGKGGVGKSLISTTLALVLSEQKYKVGLLDLDFHGASDHVILGFEPKELPEEDKGVIPPTVHGIKFMTIAYYTEDRPTPLRGKEISDALIELLTITRWDELDFLVVDMPPGMGDQFLDVLKYFKRGEFLIVATPSKLSLNVVRKLIELLKEEKHQILGIVENMKLDEEEDVMRIAQEYGIRYLGGIPLYRDLESKVGNVNELLATEFAEKIRGIAKKI | soluble |
| MGSDKIHHHHHHMFVLKNVKYKDILNIEELHIPARKITVITGKSGTGKTTLLKMLNKLISPDSGEIFFKGTPLTEIDSVELRRKVVMLPQFPVVFPGNVKENLLMGLKFSGKKIPHDEELRKILKFVMLEKDLNDDPEKFSGGEKQRLALARVLLMDPEVLLLDEPTSSLDEKTGIEIIKKVSNFAKSRGKTLVMVTHNPELRKFADVLIELKNGRVL | not soluble |
| GSSGSSGMQLEIQVALNFIISYLYNKLPRRRVNIFGEELERLLKKKYEGHWYPEKPYKGSGFRCIHIGEKVDPVIEQASKESGLDIDDVRGNLPQDLSVWIDPFEVSYQIGEKGPVKVLYVDDNSGPSSG | soluble |
| MVKLDDKNKKFKGKKKVKNVLEKKAKGLKLNKVDRKRIVKIEEKAALKSKVDKAVKDELERLKKSSSTSVFDNDGTRDSLCSESSFGSQPAPKKKSKKVLFSGELEHVKVFDKRVQDLQIKPSEASPGRGILRSPLDKKVKKLAKVKTVKVAQEEEEEHSAPPKKKVKVNAEKAVASEPADDENLESVDEQAGGDESHIDIPTLKRKRVAIQVTKSVKEQLLNMPRKERKAFLKELKLKRKPEGARAQKCKELWEKIRMGKTPKAEKDTAVHELYGLVKGHAAKLIYAHDTSRVIECLVATEREGIINNLFNELTPEIVRMSKNVYSKFFVKKMLKNGTKEQRDIIINAFRGHAPTLLRIKHAAEVLEYAYNDFANAHQRYNIITEFYGKEFILFREDNIRSLTEILAEKPEKKVVILKHLDEVIGAVNEKETLRLSILHKLMLDFFDNCDEEKKINLLDSLKDKIPEFIHTPDGAKLAIKLIWFAPVKERKLIVKNFKDLSVKAAMEHYGHRVLLALFDTVDDTVLLNKVIVSELANEMKKLIEDDWGEKVIHYLVHPRDGRGIDKREITFLAEGDSNPHSKKTQKDRYGQLYAGITENLYPYLAANFEELVFEANKSKFVAACLETTSSFDLFDRQVPAEARKSCNQAIVELAKKDFVPMDQEGFHIIEHQSGNFILMAVMRCDAALQEDERLSVALAEGLTSKQLGSWVTCNRGCHVLLKMLQVGGPKVIEKLKASISRKHLDGYNSKGANLLKAQLDGNVKK | soluble |
| GPGSMPTAKVTEKEAACVTALKGEYPASKADPADAGFLSDSTYLRFARAHDGNVKKASELLGATLRWRKQTKPYAITMEEVQNAMKQTTMYCGGRCNIGCPVIAMVPGMQNDCTVEERTKQLVYIMEETHRKGYERITWIIDFGAMGSHRDERSKEARKETMKILQDYYPERMARILLYRTPWYIRMLLGAAKMFMDARTAAKVYNAGRTIEALEKFVDRDQVPPVCGGTMKGSALSHLEELPSLNSE | not soluble |
| MSLSGSDYCFSTLGCSELSLHETADLTERHGIANVELRALSGTIDLIAALTAEFGTPARFAAFLSERNLRVAALNTSMRLFGSDSLSEIEPFIDWAEAANIAYLRIFDGGKKIGPEDLDRSAALLDNWQAVRQTRGLNVDLMIETHDALSDFEQLLTFIEQVPAARILWDTHHTWAKGSNLKMVWRQIERNVVHLHVKDSVMDSDRERRYVLPGQGEFPISELLSLILPNERQIPLSLEWERHWHPQLPPLADALKAAHSWWRQGVSEGHHHHHH | soluble |
| AKVATGTDILSAASNVSLQKARTWDEGVESKFSTTPVNDIFKDKKVVIFGLPGAYTGVCSSKHVPPYKHNIDKFKAKGVDSVICVAINDPYTVNAWAEKIQAKDAIEFYGDFDGSFHKSLELTTDLSAGLLGIRSERWSAYVVDGKVKALNVEESPSDVKVSGAETILGQI | soluble |
| MPKWGNINERRNQLHEVIRLSGMNLIIDDTDHPLIIKVASIQSARMQVYFIDNDDYFQNRLQTADENGVEYDDNDSRAIFYARGVLETVKKLRWCPDVIHCHGWMTALAPLYIKKAYKDEPSFRDAKVVFSVYEDDFKGTFNNDFASKLMLKGINKKDVATLKDPVDYATLCKLAVDYSDGIVQNSEHVNEDVMNYARQSGKLVLDYQAPDALADACNSFYDQVWEAEQK | not soluble |
| MGSDKIHHHHHHMAKVAHKKLLLSELQPGMRVKLPLSWTNHPFLFNRVDINSAAQIEMIRGLGVPFVYLISGSSDDAEAVDEEEEIEEIDEMPPERDLKADTRKSMRLSQKRFLESVNQCRNVFGKIVSDPEGAYRLSAALVEDLLSHLQEVQKPFLTLVGMDEKDVSVTQHGVSVAVLAMMIGHALDLPARELRDIALGSLFHDIGKLKVPDVIRRKRSALTPHEANYLQMHPNFGYDMLNRSGLFPKEVLNIVLHHHEFVDGSGFPDGLTGHKIPMVTQIVSLANDYDQQLSGQQATSPQVALGYLFKNRASKHSESLISVLVKILGIYPPGTIVKLSDDNVAKVIMTTKEVSQPQVWACKEDGSEASLRFLSDEGVTVQKSLRVEDLTEGAKRTLQVDKGISFYFSSLQA | not soluble |
| MSLRNDPTGVTHAIRLDNDIFKLNVYIKNIDTSKSNLRYTEGYLQSLTNILTRAKEIAIQGASGTYESDDKKMISKEVNALLEDVVAIANAKGPDGYSIFSGTKIDSEAFKVTRENKISKTSKDGAGPQIIKVEYNGNQAEKKTEVYNDIHMSNNYPGNVIFFLQNQNIISSINTNGFAVKENTKIYIDNIEIGLTAGDTALDIVAKINESSAPVEASIDPVLNSLSIKTTTPHQIWITEEKESNVLQTLGILTKNNDTKLPPYNLSSSTEVRSRSIFDALIELRDTLYNNKEELVGSRSLAEIDESLKRLLISVADLGAKENRLDRSYERISKEAADMKEDMIQYTDLDVTKAITNLNMASLAYQVSIGISAKIMQTTLLDFIKEGHHHHHH | soluble |
| MDNPTTPIAVVGPTASGKSALGVSLAHHLNGEVVNVDSMQLYKGMDIGTAKLTLEEREGIVHHLLDVWDISETASVARYQSQAIAVVEDIQRRGKTPILVGGSMLYVQSLVDDWQFPPTDPSVRAKWESKLNEVGVEALHALLAQKDPQAASIIELKDPRRTVRALEVIELTGKPFNASQPPKNAPPRWNTQIIGLGTNTEWLNPRIDLRTELMFEKGFVHEVENLVGKGLIADSTAGHAIGYAQVLQHFAGELSVDEMIEHTKIGTRRYVRRQRSWFKRDPRIHWIDASGDTFSMALSLLS | not soluble |
| FDVERKAAPAIAESDLRVASFNVLNYFTSVADSGNNNPTGQNRGATNHDEFLIQQAKIVSAMNKMDADIIGLMEVENNGFGDGSAVQNLVDALNAEIDDADDHYTYVEIADKDKYQEEYFGSDAIMVAILYRAKVVTPKEAAKVIFTPEQHIAENTITRKDGAESNPAYDKYQRHSLLQTFTVQESGEDLSIVVNHFKSKGSECIEEWIAGVEDSEPADLQGNCNNFRVSAAHAVGEALKDVKGDVLLMGDLNAYGMEDPLLTLTDYSKEKYGRDIYTAGYTTINGGELQVEQTQIKQGYGLNNLNTLLHGTDTFSYTYSGELGNLDHALASNSLAQKVVAIEDWHINSLESNLFEYGSKYTGDMPKYKDAFSASDHDPVIIAIDLPDTDIDLP | not soluble |
| MSLSKIKWWEMSRSFVLDEPETAILQIKPFPLPGLAQVPARIVLSQYRGLFYLNAYQDLDYQQRIYKSAPLPLLSPEDLRNCVSPDNPIQVSDNWPPSNTLDTGITLTPLGFDCSVPPQWQLSLRYLLIDQRDPQHPLLAISHRQDMTQMDFTPLQPISVETGQQWLQALQKFPPWFRAFDSGSGPITLNAYTPPATADSVWKQFRALHEQLRTAKDKGPGIRQVEDFFALHDYRSIAIDHSEYPGLLNDIAYWTSEAGQLNTARNWLLEVLRRDLGRMPTYLNLADLDWALFEQRPLDNIHQGRAIEGYRLYCGMRLQRQMSVPPRVLKRLGLESANPQACQGFWPLVAAADAGDEAEVRRLLASGVSGEVMAEDGRSALLHALDAPHLEIARLLLAHGAHTSGQYQWSTLAMLAMQRDLKDSPDLNQGGRLKFLLQAGVAIDEPNSRGQTPLMKLAEQERNLQGFTWLLQHPQNLDLRTVDDGETALYRAFWSNNYPAMKLLIEAGADLNLSYGRGTCGNEPMGQSLLMLVADKISPDQHSPIVSMQDTLDMFTLLLEKGADPNVGQRCEKKGRPLLLEIIARKKRDDMLKVLQGFAPPAPATAFREGHHHHHH | not soluble |
| MKIRIFVPQNKFMNREMLYNDLSGFLAMHFPCKVQKISINAGFTCPNRDGSVGYGGCTYCNNQTFNPAYCHTGKSVAQQLEEGKRFFVRKYPEMKYLAYFQAYTNTYGELEELKRKYEEALMVEDVVGLVIGTRPDCMPISLLDYLEDLGKRTFVLVEYGIESTDDETLRRINRGHTFAVSAEAVRKTAERGILVGGHIILGLPGEEREMLIRQAGVLSQLPLTTLKLHQLQLIKGTRMASEYVKEPEAFHLYTADEYVDLVIDYIEHLRPDIVLERFVSQSPKELLIAPDWGLKNYEFTDKVKKRMREKDAWQGKYYKY | not soluble |
| MGSDKIHHHHHHVSPSILGQGEVEQLLTGTYRSLQNDPGRDTWVLFDMRGENLINTYLSGSNDFVNNEIPSNNGTLLTMWRGYYKAIYNANTTLSILSNLEPSEKNTHIEAQARFLRAYAYYCLATRWDGVPIIKDNTLENVKRDKQSAVFNFIKEELSFCIDEGHLKPFGETSGAPFTVSLEAAQALMARLALTTGDMETAKNMAETLIANPKFKLSENYDNIFTTTNNSEIIFSFRNNTSEGGQNLYALFTTYNSPMKGSWFLCPSPESEKLFEDPADTRNNTCITTLESVSETYIIMNKFRDFTPLIVSRIAEMYLISAEAQGRNGLNRLNELRRSRGLNPYNNSDIASEEDYQKKVALERRKELYCEGFLFFDLIRTNKISEEVVSMNGKTNLYLPLPESEVQYNPNLNEYN | not soluble |
| GPGSMAFGNASKGTDDYTPEEHLTAAVMEYKKLEAANQNSVEHMYNVLSSPFKIGSKPCEAIRGDALRCLSEIIGNFTAKSTSGTDGSTVMANSASIVSQELPPIHRCYESVLHYESCVLERTLSRHNSMVATFEARRLREADSAREAAAAGGDI | not soluble |
| MSTNFEKHFQENVDECTLEQLRDILVNKSGKTVLANRFRALFNLKTVAEEFATKPEEAKKAIEYIAESFVNDKSELLKHEVAYVLGQTKNLDAAPTLRHVMLDQNQEPMVRHEAAEALGALGDKDSLDDLNKAAKEDPHVAVRETCELAINRINWTHGGAKDKENLQQSLYSSIDPAPPLPLEKDATIPELQALLNDPKQPLFQRYRAMFRLRDIGTDEAILALATGFSAESSLFKHEIAYVFGQIGSPAAVPSLIEVLGRKEEAPMVRHEAAEALGAIASPEVVDVLKSYLNDEVDVVRESCIVALDMYDYENSNELEYAPTAN | soluble |
